These are literature values, as cited in PMC8569824.

For the data set, the target named is Amyloid beta (1-40) Aβ 1-40 (Homo sapiens) (UniProt P05067). In words: seed-dependent aggregation inhibition.

pKi: −log10 of the molar value.

Chain of UniProt P05067 (P05067 1-40): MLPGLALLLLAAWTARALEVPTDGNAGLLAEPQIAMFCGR

The term pKi denotes the Ki on a negative log10 scale, so that one unit is a factor of ten. On to L-PGDS (from UniProt P41222), for which the pKi is 6.12.
